The values that follow come from US20220204580A1 (AstraZeneca / MedImmune, published 2022).

Numbered stars: 1 amine (or outer) side, 2 acyl side, 3 side chain; on linkers, the order of the positions; unused ones are H or OH. Bridge positions count the residues as written; N and C are the ends. Square brackets hold non-standard residues; d marks the D form. Side chains are listed from the residue outwards. Ends that are not written are not given here. * marks the point of attachment. C18 diacid = O=C(O)CCCCCCCCCCCCCCCCC(=O)*; γGlu = O=C(O)[C@H](CCC(=O)[*:2])N[*:1]; αMeF = C[C@](N)(Cc1ccccc1)C(=O)O; Aib = CC(C)(N)C(=O)O

T1: human calcitonin receptor (human, UniProt P30988 25-474)
T1 sequence (looked up): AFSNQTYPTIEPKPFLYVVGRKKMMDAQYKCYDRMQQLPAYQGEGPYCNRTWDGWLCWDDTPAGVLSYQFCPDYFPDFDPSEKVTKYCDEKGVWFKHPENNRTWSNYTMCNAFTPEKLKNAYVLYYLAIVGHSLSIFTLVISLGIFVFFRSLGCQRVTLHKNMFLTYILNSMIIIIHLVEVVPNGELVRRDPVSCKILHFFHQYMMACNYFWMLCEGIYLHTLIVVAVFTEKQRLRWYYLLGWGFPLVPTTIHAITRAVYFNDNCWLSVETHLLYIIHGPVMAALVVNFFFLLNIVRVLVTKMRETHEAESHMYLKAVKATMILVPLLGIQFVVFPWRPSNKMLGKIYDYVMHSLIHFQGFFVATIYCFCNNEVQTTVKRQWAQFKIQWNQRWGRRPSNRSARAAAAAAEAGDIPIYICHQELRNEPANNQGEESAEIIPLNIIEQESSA

T2: human amylin receptor (calcitonin receptor co-expressed with receptor activity modifying protein, RAMP3) (human, UniProt P30988 25-474; O60896 24-148)
T2 sequence (looked up) 1: T1 sequence (looked up)
T2 sequence (looked up) 2: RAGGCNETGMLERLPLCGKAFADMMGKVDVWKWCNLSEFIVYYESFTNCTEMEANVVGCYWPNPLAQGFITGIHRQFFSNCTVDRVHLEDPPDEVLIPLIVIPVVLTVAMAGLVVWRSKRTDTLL

B1: Peptide 92 (SEQ ID NO: 92) (peptide)
peptide: K([γGlu-γGlu-C18 diacid])CNTATCATQRLANFLRHSS[Aib]NFGPILPPTNVGS[Aib]TY-NH2
modifications: disulfide 2-7; N-terminus assumed
SMILES: CC[C@H](C)[C@H](NC(=O)[C@@H]1CCCN1C(=O)CNC(=O)[C@H](Cc1ccccc1)NC(=O)[C@H](CC(N)=O)NC(=O)C(C)(C)NC(=O)[C@H](CO)NC(=O)[C@H](CO)NC(=O)[C@H](Cc1c[nH]cn1)NC(=O)[C@H](CCCNC(=N)N)NC(=O)[C@H](CC(C)C)NC(=O)[C@H](Cc1ccccc1)NC(=O)[C@H](CC(N)=O)NC(=O)[C@H](C)NC(=O)[C@H](CC(C)C)NC(=O)[C@H](CCCNC(=N)N)NC(=O)[C@H](CCC(N)=O)NC(=O)[C@@H](NC(=O)[C@H](C)NC(=O)[C@@H]1CSSC[C@H](NC(=O)[C@@H](N)CCCCNC(=O)CC[C@H](NC(=O)CC[C@H](NC(=O)CCCCCCCCCCCCCCCCC(=O)O)C(=O)O)C(=O)O)C(=O)N[C@@H](CC(N)=O)C(=O)N[C@@H]([C@@H](C)O)C(=O)N[C@@H](C)C(=O)N[C@@H]([C@@H](C)O)C(=O)N1)[C@@H](C)O)C(=O)N[C@@H](CC(C)C)C(=O)N1CCC[C@H]1C(=O)N1CCC[C@H]1C(=O)N[C@H](C(=O)N[C@@H](CC(N)=O)C(=O)N[C@H](C(=O)NCC(=O)N[C@@H](CO)C(=O)NC(C)(C)C(=O)N[C@H](C(=O)N[C@@H](Cc1ccc(O)cc1)C(N)=O)[C@@H](C)O)C(C)C)[C@@H](C)O
B2: Peptide 95 (SEQ ID NO: 95) (peptide)
peptide: K([γGlu-C18 diacid])KCNTATCATQRLANFL[Aib]HSSNNFGPI[Aib]PPTNVGSNTY-NH2
modifications: disulfide 3-8; N-terminus assumed
SMILES: CC[C@H](C)[C@H](NC(=O)[C@@H]1CCCN1C(=O)CNC(=O)[C@H](Cc1ccccc1)NC(=O)[C@H](CC(N)=O)NC(=O)[C@H](CC(N)=O)NC(=O)[C@H](CO)NC(=O)[C@H](CO)NC(=O)[C@H](Cc1c[nH]cn1)NC(=O)C(C)(C)NC(=O)[C@H](CC(C)C)NC(=O)[C@H](Cc1ccccc1)NC(=O)[C@H](CC(N)=O)NC(=O)[C@H](C)NC(=O)[C@H](CC(C)C)NC(=O)[C@H](CCCNC(=N)N)NC(=O)[C@H](CCC(N)=O)NC(=O)[C@@H](NC(=O)[C@H](C)NC(=O)[C@@H]1CSSC[C@H](NC(=O)[C@H](CCCCN)NC(=O)[C@@H](N)CCCCNC(=O)CC[C@H](NC(=O)CCCCCCCCCCCCCCCCC(=O)O)C(=O)O)C(=O)N[C@@H](CC(N)=O)C(=O)N[C@@H]([C@@H](C)O)C(=O)N[C@@H](C)C(=O)N[C@@H]([C@@H](C)O)C(=O)N1)[C@@H](C)O)C(=O)NC(C)(C)C(=O)N1CCC[C@H]1C(=O)N1CCC[C@H]1C(=O)N[C@H](C(=O)N[C@@H](CC(N)=O)C(=O)N[C@H](C(=O)NCC(=O)N[C@@H](CO)C(=O)N[C@@H](CC(N)=O)C(=O)N[C@H](C(=O)N[C@@H](Cc1ccc(O)cc1)C(N)=O)[C@@H](C)O)C(C)C)[C@@H](C)O
B3: Peptide 96 (SEQ ID NO: 96) (peptide)
peptide: K([γGlu-C18 diacid])KCNTATCATQRLANFL[Aib]HSSNNFGPIL[Aib]PTNVGSNTY-NH2
modifications: disulfide 3-8; N-terminus assumed
SMILES: CC[C@H](C)[C@H](NC(=O)[C@@H]1CCCN1C(=O)CNC(=O)[C@H](Cc1ccccc1)NC(=O)[C@H](CC(N)=O)NC(=O)[C@H](CC(N)=O)NC(=O)[C@H](CO)NC(=O)[C@H](CO)NC(=O)[C@H](Cc1c[nH]cn1)NC(=O)C(C)(C)NC(=O)[C@H](CC(C)C)NC(=O)[C@H](Cc1ccccc1)NC(=O)[C@H](CC(N)=O)NC(=O)[C@H](C)NC(=O)[C@H](CC(C)C)NC(=O)[C@H](CCCNC(=N)N)NC(=O)[C@H](CCC(N)=O)NC(=O)[C@@H](NC(=O)[C@H](C)NC(=O)[C@@H]1CSSC[C@H](NC(=O)[C@H](CCCCN)NC(=O)[C@@H](N)CCCCNC(=O)CC[C@H](NC(=O)CCCCCCCCCCCCCCCCC(=O)O)C(=O)O)C(=O)N[C@@H](CC(N)=O)C(=O)N[C@@H]([C@@H](C)O)C(=O)N[C@@H](C)C(=O)N[C@@H]([C@@H](C)O)C(=O)N1)[C@@H](C)O)C(=O)N[C@@H](CC(C)C)C(=O)NC(C)(C)C(=O)N1CCC[C@H]1C(=O)N[C@H](C(=O)N[C@@H](CC(N)=O)C(=O)N[C@H](C(=O)NCC(=O)N[C@@H](CO)C(=O)N[C@@H](CC(N)=O)C(=O)N[C@H](C(=O)N[C@@H](Cc1ccc(O)cc1)C(N)=O)[C@@H](C)O)C(C)C)[C@@H](C)O
B4: Peptide 94 (SEQ ID NO: 94) (peptide)
peptide: K([γGlu-C18 diacid])KCNTATCATQRLANFL[Aib]HSSNNFGP[Aib]LPPTNVGSNTY-NH2
modifications: disulfide 3-8; N-terminus assumed
SMILES: CC(C)C[C@H](NC(=O)[C@H](CCCNC(=N)N)NC(=O)[C@H](CCC(N)=O)NC(=O)[C@@H](NC(=O)[C@H](C)NC(=O)[C@@H]1CSSC[C@H](NC(=O)[C@H](CCCCN)NC(=O)[C@@H](N)CCCCNC(=O)CC[C@H](NC(=O)CCCCCCCCCCCCCCCCC(=O)O)C(=O)O)C(=O)N[C@@H](CC(N)=O)C(=O)N[C@@H]([C@@H](C)O)C(=O)N[C@@H](C)C(=O)N[C@@H]([C@@H](C)O)C(=O)N1)[C@@H](C)O)C(=O)N[C@@H](C)C(=O)N[C@@H](CC(N)=O)C(=O)N[C@@H](Cc1ccccc1)C(=O)N[C@@H](CC(C)C)C(=O)NC(C)(C)C(=O)N[C@@H](Cc1c[nH]cn1)C(=O)N[C@@H](CO)C(=O)N[C@@H](CO)C(=O)N[C@@H](CC(N)=O)C(=O)N[C@@H](CC(N)=O)C(=O)N[C@@H](Cc1ccccc1)C(=O)NCC(=O)N1CCC[C@H]1C(=O)NC(C)(C)C(=O)N[C@@H](CC(C)C)C(=O)N1CCC[C@H]1C(=O)N1CCC[C@H]1C(=O)N[C@H](C(=O)N[C@@H](CC(N)=O)C(=O)N[C@H](C(=O)NCC(=O)N[C@@H](CO)C(=O)N[C@@H](CC(N)=O)C(=O)N[C@H](C(=O)N[C@@H](Cc1ccc(O)cc1)C(N)=O)[C@@H](C)O)C(C)C)[C@@H](C)O
B5: Peptide 97 (SEQ ID NO: 97) (peptide)
peptide: K([γGlu-C18 diacid])KCNTATCATQRLANFL[Aib]HSSNNFGPILP[Aib]TNVGSNTY-NH2
modifications: disulfide 3-8; N-terminus assumed
SMILES: CC[C@H](C)[C@H](NC(=O)[C@@H]1CCCN1C(=O)CNC(=O)[C@H](Cc1ccccc1)NC(=O)[C@H](CC(N)=O)NC(=O)[C@H](CC(N)=O)NC(=O)[C@H](CO)NC(=O)[C@H](CO)NC(=O)[C@H](Cc1c[nH]cn1)NC(=O)C(C)(C)NC(=O)[C@H](CC(C)C)NC(=O)[C@H](Cc1ccccc1)NC(=O)[C@H](CC(N)=O)NC(=O)[C@H](C)NC(=O)[C@H](CC(C)C)NC(=O)[C@H](CCCNC(=N)N)NC(=O)[C@H](CCC(N)=O)NC(=O)[C@@H](NC(=O)[C@H](C)NC(=O)[C@@H]1CSSC[C@H](NC(=O)[C@H](CCCCN)NC(=O)[C@@H](N)CCCCNC(=O)CC[C@H](NC(=O)CCCCCCCCCCCCCCCCC(=O)O)C(=O)O)C(=O)N[C@@H](CC(N)=O)C(=O)N[C@@H]([C@@H](C)O)C(=O)N[C@@H](C)C(=O)N[C@@H]([C@@H](C)O)C(=O)N1)[C@@H](C)O)C(=O)N[C@@H](CC(C)C)C(=O)N1CCC[C@H]1C(=O)NC(C)(C)C(=O)N[C@H](C(=O)N[C@@H](CC(N)=O)C(=O)N[C@H](C(=O)NCC(=O)N[C@@H](CO)C(=O)N[C@@H](CC(N)=O)C(=O)N[C@H](C(=O)N[C@@H](Cc1ccc(O)cc1)C(N)=O)[C@@H](C)O)C(C)C)[C@@H](C)O
B6: Peptide 11 (SEQ ID NO: 11) (peptide)
peptide: K([γGlu-γGlu-C18 diacid])CNTATCATQRLAEFLRHSSNN[αMeF]GPILPPTNVGSNTY-NH2
modifications: disulfide 2-7; N-terminus assumed
SMILES: CC[C@H](C)[C@H](NC(=O)[C@@H]1CCCN1C(=O)CNC(=O)[C@](C)(Cc1ccccc1)NC(=O)[C@H](CC(N)=O)NC(=O)[C@H](CC(N)=O)NC(=O)[C@H](CO)NC(=O)[C@H](CO)NC(=O)[C@H](Cc1c[nH]cn1)NC(=O)[C@H](CCCNC(=N)N)NC(=O)[C@H](CC(C)C)NC(=O)[C@H](Cc1ccccc1)NC(=O)[C@H](CCC(=O)O)NC(=O)[C@H](C)NC(=O)[C@H](CC(C)C)NC(=O)[C@H](CCCNC(=N)N)NC(=O)[C@H](CCC(N)=O)NC(=O)[C@@H](NC(=O)[C@H](C)NC(=O)[C@@H]1CSSC[C@H](NC(=O)[C@@H](N)CCCCNC(=O)CC[C@H](NC(=O)CC[C@H](NC(=O)CCCCCCCCCCCCCCCCC(=O)O)C(=O)O)C(=O)O)C(=O)N[C@@H](CC(N)=O)C(=O)N[C@@H]([C@@H](C)O)C(=O)N[C@@H](C)C(=O)N[C@@H]([C@@H](C)O)C(=O)N1)[C@@H](C)O)C(=O)N[C@@H](CC(C)C)C(=O)N1CCC[C@H]1C(=O)N1CCC[C@H]1C(=O)N[C@H](C(=O)N[C@@H](CC(N)=O)C(=O)N[C@H](C(=O)NCC(=O)N[C@@H](CO)C(=O)N[C@@H](CC(N)=O)C(=O)N[C@H](C(=O)N[C@@H](Cc1ccc(O)cc1)C(N)=O)[C@@H](C)O)C(C)C)[C@@H](C)O

The target in one experiment is T1, human calcitonin receptor. As to the kind of experiment: cell-based or functional assay.
B1: the “EC50 (cAMP production)” value is 44.4 nM.
As to B2, the “EC50 (cAMP production)” value was determined as 1.17 nM.
Consider B3, for which the “EC50 (cAMP production)” value worked out at 0.859 nM.
On to B4, for which the “EC50 (cAMP production)” value was 1.9 nM.
Still for that read-out and setting: in the case of B5 it was 0.944 nM.
On to B6, for which the “EC50 (cAMP production)” value was 3.64 nM.

Another experiment concerns the target T2, human amylin receptor (calcitonin …). As to the kind of experiment: cell-based or functional assay.
As to B1, the “EC50 (cAMP production)” value is 0.341 nM and the “Ratio (EC50 hCTR / EC50 hAMYR3)” value came to 130.
Consider B2, for which the “EC50 (cAMP production)” value is 0.691 nM and the “Ratio (EC50 hCTR / EC50 hAMYR3)” value came to 2.
For the molecule B3, the “EC50 (cAMP production)” value was 0.556 nM and the “Ratio (EC50 hCTR / EC50 hAMYR3)” value amounted to 2.
As for B4, the “EC50 (cAMP production)” value came out at 0.322 nM and the “Ratio (EC50 hCTR / EC50 hAMYR3)” value turned out to be 6.
In the case of B5, the “EC50 (cAMP production)” value was 0.684 nM and the “Ratio (EC50 hCTR / EC50 hAMYR3)” value came to 1.
Consider B6, for which the “EC50 (cAMP production)” value is 0.177 nM and the “Ratio (EC50 hCTR / EC50 hAMYR3)” value was determined as 21.
